{"source": "patent US20170218059A1", "binders": {"B1": {"name": "murine IMMU-H4 antibody (antibody, V domains shown)", "VH": "QVQLQQSGAELVRPGASVKLSCTASGFNIKDDYLHWVKQRPEQGLEWIGWIDPENGDTEYASKFQGKATITADTSSNTAYLQLSSLTSEDTAVYYCSSPLVHLRTFAYWGQGTLVTVS", "VL": "DIQLTQSPASLAVSLGQRATISCRASESVDSYDNSLHWFQQKPGQPPKLLIYLASNLESGVPARFSGSGSRTDFTLTIDPVEADDAATYYCQQNNEDPWTFGGGTKLEIKR"}}, "biological_target": "histones", "assay": "ELISA", "data": [{"binder": "B1", "values": [{"measurement": "Kd", "result": 6.6, "unit": "nM"}]}]}
